Experimental data taken from patent US12516145B2 (priority 2019, dated 2026).

Key:
HeLa cells [1] = experiment: Flow cytometry for uptake ability in HeLa cells (Example 1); type: cell-based, human; settings: rhodamine B-labeled, 0.25 μM with respect to dye, 24 hours
Description: Flow Cytometry: The cell uptake study was analyzed via flow cytometry using a BD FacsAria Ilu 4-Laser flow cytometer (Becton Dickinson Inc., USA). Mean fluorescence intensity and PE-A-histogram data was prepared for presentation using FlowJo v10.
For cellular uptake measurements, HeLa cells were plated in 12-well plates at a density of 1,000,000 per well and incubated for 24 hours in a 5% CO2 atmosphere at 37° C. 500 μL of 0.25 μM (with respect to rhodamine) KLA peptide, poly(KLAAm25-co-DMA75), poly(KLAAm25-co-DMA25), and poly(KLAAm10) in 10% FBS DMEM media without phenol red were incubated with the cells for 24 hours respectively. After triple washing with DPBS, 500 μL of 0.25% Trypsin-EDTA was added to each well for 10 min at 37° C. Cells were fixed with a 4% paraformaldehyde solution for 15 min at room temperature.

thermolysin [2] = molecular target: T1, thermolysin (Bacillus thermoproteolyticus, UniProt P00800); settings: for morphology change of micelles after treatment with thermolysin: TEM and DLS, spherical micelles before treatment
T1 sequence (P00800 233-548): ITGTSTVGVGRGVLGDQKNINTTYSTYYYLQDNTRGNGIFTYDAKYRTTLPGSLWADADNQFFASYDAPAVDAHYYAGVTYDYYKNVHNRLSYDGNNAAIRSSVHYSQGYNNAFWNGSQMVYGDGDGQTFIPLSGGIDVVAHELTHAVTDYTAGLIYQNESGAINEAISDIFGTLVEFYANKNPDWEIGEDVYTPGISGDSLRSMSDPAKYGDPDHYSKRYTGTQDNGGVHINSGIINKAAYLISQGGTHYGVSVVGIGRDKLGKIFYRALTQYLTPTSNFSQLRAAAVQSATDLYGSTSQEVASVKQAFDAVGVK
Description: Transmission Electron Microscope (TEM): Twenty microliters of sample were applied onto a 400 mesh carbon grids (Ted Pella, INC.). The grids were observed on a Hitachi HT 7700 microscope operating at 120 kV. The images were recorded with a slow-scan charge-coupled device (CCD) camera (Veleta 2k×2k).
Dynamic Light Scattering (DLS): DLS analysis was conducted at room temperature on a Zetasizer Nano-ZS (Malvern). The laser for DLS was at a wavelength of 633 nm.
(§1) For enzyme-triggered cleavage experiments, the molar ratio of thermolysin to peptide was set to 1:300. Moreover, the temperature was set to 55° C. to achieve the optimal activity of thermolysin. For example, poly(PepAm21-co-DMA24) (P4, 1 mg, 0.87 μmol with respect to peptides, 300 equiv.) was dissolved in 1 ml of DPBS solution. Then thermolysin (0.1 mg, 2.9 nmol, 1 equiv.) was added into the polymer solution which was stirred in a preheated oil bath at 55° C. In the case of control experiments which involved using deactivated thermolysin, EDTA (100 equiv. to thermolysin) was utilized to capture the zinc and calcium ions, resulting in denaturing of thermolysin.

HeLa cells [3] = experiment: CellTilter-Blue cell viability assay of KLA based materials (Example 1); set-up: species or system human; settings: even at 100 μM with respect to peptide, 72 hours, 37 °C
Description: Hela cells were purchased from ATCC. Cells were cultured at 37° C. under 5% CO2 in phenol-red containing Dulbecco's Modified Eagle Medium (DMEM; Gibco Life Tech., cat. #11960-044) supplemented with 10% fetal bovine serum (Omega Scientific, cat. #11140-050), sodium pyruvate (Gibco Life Tech., cat. #35050-061), L-glutamine (Gibco Life Tech., cat. #35050-061), and the antibiotics penicillin/streptomycin (Corning Cellgro, cat. #30-002-C1). Cells were grown in T75 culture flasks and subcultured at ˜75-80% confluency.
The cytotoxicity of materials was assessed using the CellTilter-Blue assay. HeLa cells were plated at a density of 5000 cells per well in a 96 well plate 18 hours prior to treatment. Materials were dissolved in DPBS at the desired concentration and added to the wells along with a 10% DMSO positive control. Cells were incubated for 72 hours at 37° C. Note that the concentration of all the materials is with respect to the peptide concentration to ensure that all peptides and polymers are fairly compared with respect to their therapeutic components. The media was removed and 80 μL of new media without phenol red was added followed by adding 20 μL of CellTilter-Blue reagent. The cells were incubated for 3 hours at 37° C. The fluorescence was measured at 560 nm excitation and 590 nm emission wavelength.

[4] = amine groups; cited from earlier work
[5] = cited from earlier work
trypsin [6] = experiment: Trypsin-induced cleavage (proteolytic resistance) by RP-HPLC; type: in vitro ADME; settings: isolated enzyme trypsin; trypsin 0.1 μM, 200 μM peptide, PBS pH 7.4, 37 °C; read-out: peptide cleaved by trypsin within 1 h
Description: For protease-triggered cleavage experiments, the molar ratio of trypsin to peptide was set to 1:2000. Moreover, the temperature was set to 37° C. to match the body temperature. For example, poly[(KLAAm10-co-DMA30)-b-(DAAm70-co-DMA30)](NP1, 0.9 mg, 0.2 μmol with respect to peptides, 2000 equiv.) was dissolved in 1 ml of DPBS solution. […] During the cleavage, aliquots were taken for HPLC analysis at predetermined time points.

trypsin [7] = experiment: trypsin (0.1 μM) in PBS buffer (pH=7.4), molar ratio of trypsin to peptide 1:2000; settings: 37° C.
HeLa cells [8] = experiment: CellTiter-Blue cell viability assay of nanoparticles (Example 2); type: cell-based, human; settings: 72 h; for cytotoxicity in HeLa cells: 37 °C, concentration with respect to total KLA peptide content
Description: Fluorescence Measurement: CellTiter-Blue® fluorescence measurements were recorded using a Perkin Elmer EnSpire multimode Plate Reader.
HeLa cells were grown in Dulbecco's modified Eagle medium (DMEM) supplemented with 10% fetal bovine serum (FBS), 1% penicillin-streptomycin. Cells were maintained at 37° C. and 5% CO2 with a relative humidity of 95%. HeLa cells were plated in 96-well plates at a density of 5000 per well and then left to attach for 24 h. Subsequently, the cells were treated with the polymers of various concentrations for the desired time followed by washing 3 times with PBS. Then CellTiter-Blue® at 10% (v/v) in complete media was added to each well and incubated for 2 h to allow the live cells to convert resazurin to fluorescent resorufin. The fluorescent signal (Excitation wavelength: 560 nm; Emission wavelength: 600 nm) was then analyzed by a plate reader. Three replicates were performed for each independent sample. 10% DMSO was used as a positive control and untreated cells in complete medium as a negative control. Viability is reported as a percentage of untreated cells.

[9] = Dynamic light scattering (hydrodynamic size); type: physicochemical; settings: for Dh: hydrodynamic diameter by DLS, photo-PISA at solids content of 15 wt. %; for hydrodynamic diameter / size by DLS: in water (DIW); for Rh: hydrodynamic radius by DLS
Description: (§2) Dynamic Light Scattering (DLS) and Zeta Potential Analysis: DLS and zeta potential analyses were conducted at room temperature on a Zetasizer Nano-ZS (Malvern). The laser for DLS was at a wavelength of 633 nm.

[10] = system: mitochondrial membrane potential of HeLa cells; experiment: Mitochondria membrane potential of HeLa cells with JC-1 probe; type: cell-based, human; settings: 2 μM JC-1, excitation 488 nm, NP5 even after 30 min incubation
Description: HeLa cells were plated in 4-well, glass bottom dishes at 30,000 cells per well in 500 μL medium. […] The cells were stained with 2 μM of JC-1 at 37° C. for 15 minutes, washed with PBS to remove any membrane-bound, non-internalized fluorophores, and returned to complete medium. For the positive control group, the cells were incubated with 50 μM CCCP and 2 μM of JC-1 probe in DPBS solution simultaneously for 15 min. Before the confocal observation, 1 drop of Hoechst 33342 dye was added to stain the nuclei. Confocal microscope was employed to observe the fluorescence of JC-1 monomer, J-aggregates and Hoechst dye.

[11] = Transmission electron microscopy (particle size); type: physicochemical; settings: for Rcore: estimated by TEM analysis
Description: Dry-State Transmission Electron Microscopy (TEM): Twenty microliters of samples were applied onto a 400 mesh carbon grids (Ted Pella, INC.). The grids were observed on a Hitachi HT 7700 microscope operating at 120 kV. The images were recorded with a slow-scan charge-coupled device (CCD) camera (Veleta 2k×2k).

thermolysin [12] = molecular target: T1, thermolysin; settings: thermolysin 1/300 equiv. to peptides, 55 °C, DPBS, HPLC
Description: Analytical High-Performance Liquid Chromatography (HPLC): Analytical HPLC analysis of peptides was performed on a Jupiter 4μ Proteo 90A Phenomenex column (150×4.60 mm) using a Hitachi-Elite LaChrom L-2130 pump equipped with UV-Vis detector (Hitachi-Elite LaChrom L2420).
as §1

thermolysin [13] = experiment: thermolysin in DPBS solution, molar ratio of thermolysin to peptide 1:300; settings: 55° C.
Zeta potential analysis = type: physicochemical; settings: room temperature
Description: as §2

Compound: poly(KLAAm10)
- cellular uptake by flow cytometry (HeLa cells [1]): clearly outperformed more sparsely grafted polypeptide brushes

Compound: PMMA90-b-poly(PepAm9-co-DMA30) [P7]
- morphology change of micelles after treatment with thermolysin (thermolysin [2]): transition from spherical micelle to fused worm micelles

Compound: C=CC(=O)NCCCCCC(=O)N[C@@H](CCCCN)C(=O)N[C@@H](CC(C)C)C(=O)N[C@@H](C)C(=O)N[C@@H](CCCCN)C(=O)N[C@@H](CC(C)C)C(=O)N[C@@H](C)C(=O)N[C@@H](CCCCN)C(=O)N[C@@H](CCCCN)C(=O)N[C@@H](CC(C)C)C(=O)N[C@@H](C)C(=O)N[C@@H](CCCCN)C(=O)N[C@@H](CC(C)C)C(=O)N[C@@H](C)C(=O)N[C@@H](CCCCN)C(N)=O [KLAAm]
- cytotoxicity to HeLa cells (HeLa cells [3]): did not exhibit cytotoxicity
- pKa [4]: 9
- maximum concentration in water [5]: about 100 mM
- metabolised at 1 h, 200 μM (trypsin [6]): 100%

Compound: KLAKLAKKLAKLAK
- fragment found (trypsin [7]): LAK

Compound: poly[(KLAAm10-co-DMA10)-b-(DAAm280-co-DMA120)] (KLAKLAKKLAKLAK) [NP5, KLA peptide brush polymer nanoparticle]
- cytotoxicity in HeLa cells (HeLa cells [8]): dose-dependent cytotoxicity
- toxicity compared between nanoparticles (HeLa cells [8]; HeLa cells): significantly higher than NP3
- Dh [9]: 92 nm
- red fluorescence of JC-1 J-aggregates (mitochondrial membrane potential) [10]: almost no red emission

Compound: CC(C)C[C@H](NC(=O)[C@H](CCCCN)NC(=O)[C@H](C)NC(=O)[C@H](CC(C)C)NC(=O)[C@H](CCCCN)NC(=O)[C@H](CCCCN)NC(=O)[C@H](C)NC(=O)[C@H](CC(C)C)NC(=O)[C@H](CCCCN)NC(=O)[C@H](C)NC(=O)[C@H](CC(C)C)NC(=O)[C@@H](N)CCCCN)C(=O)N[C@@H](C)C(=O)N[C@@H](CCCCN)C(N)=O [KLA peptide, KLAKLAKKLAKLAK, reference compound]
- cytotoxicity to HeLa cells (HeLa cells [3]): did not exhibit cytotoxicity
- metabolised at 1 h, 200 μM (trypsin [6]): 100%

Compound: PMMA90-b-poly(PepAm21-co-DMA63) [P8]
- morphology change of micelles after treatment with thermolysin (thermolysin [2]): phase transition into a worm-like phase
- change in particle diameter with deactivated thermolysin (thermolysin [2]; thermolysin pretreated with ethylenediaminetetraacetic acid, same cleavage conditions, DLS): no change in diameter
- diameter / average size by TEM ([11]; dry-state TEM): 24 nm
- hydrodynamic diameter / size by DLS [9]: 28 nm

Compound: poly(PepAm21-co-DMA71) [P4]
- hydrodynamic diameter / size by DLS [9]: < 10 nm
- time within which thermolysin-induced peptide cleavage was complete (thermolysin [12]): ≤ 1 h

Compound: poly(KLAAm25-co-DMA25)
- cellular uptake by flow cytometry (HeLa cells [1]): clearly outperformed more sparsely grafted polypeptide brushes

Compound: GPLGLAGG
- cleaved bond (thermolysin [13]): glycine (G)-leucine (L)

Compound: poly[(KLAAm10-co-DMA30)-b-(DAAm70-co-DMA30)] (KLAKLAKKLAKLAK) [NP1, KLA peptide brush polymer nanoparticle]
- Rcore [11]: 13 nm
- Dh [9]: 36 nm
- Rh [9]: 18 nm
- Zeta potential (Zeta potential analysis): 47 mV

Compound: PnBA200-b-poly(PepAm36-co-DMA123) [P9]
- morphology change of micelles after treatment with thermolysin (thermolysin [2]): transition from spherical micelle to a mixture of micelles and fiber structure

Compound: poly[(KLAAm10-co-DMA30)-b-(DAAm280-co-DMA120)] (KLAKLAKKLAKLAK) [NP3, KLA peptide brush polymer nanoparticle]
- cytotoxicity in HeLa cells (HeLa cells [8]): dose-dependent cytotoxicity
- Rcore [11]: 46 nm
- Dh [9]: 105 nm
- Rh [9]: 52 nm
- Zeta potential (Zeta potential analysis): 48 mV

Compound: poly(PepAm6-co-DMA7) [P1]
- time within which thermolysin-induced peptide cleavage was complete (thermolysin [12]): ≤ 1 h

Compound: NP2: KLA peptide brush polymer nanoparticle: shell KLAAm 10, DMA 30; core DAAm 140, DMA 60 (KLAKLAKKLAKLAK)
- Rcore [11]: 28 nm
- Dh [9]: 62 nm
- Rh [9]: 31 nm
- Zeta potential (Zeta potential analysis): 56 mV

Compound: poly[(KLAAm10-co-DMA10)-b-(DAAm140-co-DMA60)] (KLAKLAKKLAKLAK) [NP4, KLA peptide brush polymer nanoparticle]
- Dh [9]: 64 nm
